{
  "source": "paper PMC7687380",
  "origin": "cited, not measured here",
  "target": "LRP1 (Homo sapiens) (UniProt Q07954)",
  "sequence (Q07954 20-4544)": "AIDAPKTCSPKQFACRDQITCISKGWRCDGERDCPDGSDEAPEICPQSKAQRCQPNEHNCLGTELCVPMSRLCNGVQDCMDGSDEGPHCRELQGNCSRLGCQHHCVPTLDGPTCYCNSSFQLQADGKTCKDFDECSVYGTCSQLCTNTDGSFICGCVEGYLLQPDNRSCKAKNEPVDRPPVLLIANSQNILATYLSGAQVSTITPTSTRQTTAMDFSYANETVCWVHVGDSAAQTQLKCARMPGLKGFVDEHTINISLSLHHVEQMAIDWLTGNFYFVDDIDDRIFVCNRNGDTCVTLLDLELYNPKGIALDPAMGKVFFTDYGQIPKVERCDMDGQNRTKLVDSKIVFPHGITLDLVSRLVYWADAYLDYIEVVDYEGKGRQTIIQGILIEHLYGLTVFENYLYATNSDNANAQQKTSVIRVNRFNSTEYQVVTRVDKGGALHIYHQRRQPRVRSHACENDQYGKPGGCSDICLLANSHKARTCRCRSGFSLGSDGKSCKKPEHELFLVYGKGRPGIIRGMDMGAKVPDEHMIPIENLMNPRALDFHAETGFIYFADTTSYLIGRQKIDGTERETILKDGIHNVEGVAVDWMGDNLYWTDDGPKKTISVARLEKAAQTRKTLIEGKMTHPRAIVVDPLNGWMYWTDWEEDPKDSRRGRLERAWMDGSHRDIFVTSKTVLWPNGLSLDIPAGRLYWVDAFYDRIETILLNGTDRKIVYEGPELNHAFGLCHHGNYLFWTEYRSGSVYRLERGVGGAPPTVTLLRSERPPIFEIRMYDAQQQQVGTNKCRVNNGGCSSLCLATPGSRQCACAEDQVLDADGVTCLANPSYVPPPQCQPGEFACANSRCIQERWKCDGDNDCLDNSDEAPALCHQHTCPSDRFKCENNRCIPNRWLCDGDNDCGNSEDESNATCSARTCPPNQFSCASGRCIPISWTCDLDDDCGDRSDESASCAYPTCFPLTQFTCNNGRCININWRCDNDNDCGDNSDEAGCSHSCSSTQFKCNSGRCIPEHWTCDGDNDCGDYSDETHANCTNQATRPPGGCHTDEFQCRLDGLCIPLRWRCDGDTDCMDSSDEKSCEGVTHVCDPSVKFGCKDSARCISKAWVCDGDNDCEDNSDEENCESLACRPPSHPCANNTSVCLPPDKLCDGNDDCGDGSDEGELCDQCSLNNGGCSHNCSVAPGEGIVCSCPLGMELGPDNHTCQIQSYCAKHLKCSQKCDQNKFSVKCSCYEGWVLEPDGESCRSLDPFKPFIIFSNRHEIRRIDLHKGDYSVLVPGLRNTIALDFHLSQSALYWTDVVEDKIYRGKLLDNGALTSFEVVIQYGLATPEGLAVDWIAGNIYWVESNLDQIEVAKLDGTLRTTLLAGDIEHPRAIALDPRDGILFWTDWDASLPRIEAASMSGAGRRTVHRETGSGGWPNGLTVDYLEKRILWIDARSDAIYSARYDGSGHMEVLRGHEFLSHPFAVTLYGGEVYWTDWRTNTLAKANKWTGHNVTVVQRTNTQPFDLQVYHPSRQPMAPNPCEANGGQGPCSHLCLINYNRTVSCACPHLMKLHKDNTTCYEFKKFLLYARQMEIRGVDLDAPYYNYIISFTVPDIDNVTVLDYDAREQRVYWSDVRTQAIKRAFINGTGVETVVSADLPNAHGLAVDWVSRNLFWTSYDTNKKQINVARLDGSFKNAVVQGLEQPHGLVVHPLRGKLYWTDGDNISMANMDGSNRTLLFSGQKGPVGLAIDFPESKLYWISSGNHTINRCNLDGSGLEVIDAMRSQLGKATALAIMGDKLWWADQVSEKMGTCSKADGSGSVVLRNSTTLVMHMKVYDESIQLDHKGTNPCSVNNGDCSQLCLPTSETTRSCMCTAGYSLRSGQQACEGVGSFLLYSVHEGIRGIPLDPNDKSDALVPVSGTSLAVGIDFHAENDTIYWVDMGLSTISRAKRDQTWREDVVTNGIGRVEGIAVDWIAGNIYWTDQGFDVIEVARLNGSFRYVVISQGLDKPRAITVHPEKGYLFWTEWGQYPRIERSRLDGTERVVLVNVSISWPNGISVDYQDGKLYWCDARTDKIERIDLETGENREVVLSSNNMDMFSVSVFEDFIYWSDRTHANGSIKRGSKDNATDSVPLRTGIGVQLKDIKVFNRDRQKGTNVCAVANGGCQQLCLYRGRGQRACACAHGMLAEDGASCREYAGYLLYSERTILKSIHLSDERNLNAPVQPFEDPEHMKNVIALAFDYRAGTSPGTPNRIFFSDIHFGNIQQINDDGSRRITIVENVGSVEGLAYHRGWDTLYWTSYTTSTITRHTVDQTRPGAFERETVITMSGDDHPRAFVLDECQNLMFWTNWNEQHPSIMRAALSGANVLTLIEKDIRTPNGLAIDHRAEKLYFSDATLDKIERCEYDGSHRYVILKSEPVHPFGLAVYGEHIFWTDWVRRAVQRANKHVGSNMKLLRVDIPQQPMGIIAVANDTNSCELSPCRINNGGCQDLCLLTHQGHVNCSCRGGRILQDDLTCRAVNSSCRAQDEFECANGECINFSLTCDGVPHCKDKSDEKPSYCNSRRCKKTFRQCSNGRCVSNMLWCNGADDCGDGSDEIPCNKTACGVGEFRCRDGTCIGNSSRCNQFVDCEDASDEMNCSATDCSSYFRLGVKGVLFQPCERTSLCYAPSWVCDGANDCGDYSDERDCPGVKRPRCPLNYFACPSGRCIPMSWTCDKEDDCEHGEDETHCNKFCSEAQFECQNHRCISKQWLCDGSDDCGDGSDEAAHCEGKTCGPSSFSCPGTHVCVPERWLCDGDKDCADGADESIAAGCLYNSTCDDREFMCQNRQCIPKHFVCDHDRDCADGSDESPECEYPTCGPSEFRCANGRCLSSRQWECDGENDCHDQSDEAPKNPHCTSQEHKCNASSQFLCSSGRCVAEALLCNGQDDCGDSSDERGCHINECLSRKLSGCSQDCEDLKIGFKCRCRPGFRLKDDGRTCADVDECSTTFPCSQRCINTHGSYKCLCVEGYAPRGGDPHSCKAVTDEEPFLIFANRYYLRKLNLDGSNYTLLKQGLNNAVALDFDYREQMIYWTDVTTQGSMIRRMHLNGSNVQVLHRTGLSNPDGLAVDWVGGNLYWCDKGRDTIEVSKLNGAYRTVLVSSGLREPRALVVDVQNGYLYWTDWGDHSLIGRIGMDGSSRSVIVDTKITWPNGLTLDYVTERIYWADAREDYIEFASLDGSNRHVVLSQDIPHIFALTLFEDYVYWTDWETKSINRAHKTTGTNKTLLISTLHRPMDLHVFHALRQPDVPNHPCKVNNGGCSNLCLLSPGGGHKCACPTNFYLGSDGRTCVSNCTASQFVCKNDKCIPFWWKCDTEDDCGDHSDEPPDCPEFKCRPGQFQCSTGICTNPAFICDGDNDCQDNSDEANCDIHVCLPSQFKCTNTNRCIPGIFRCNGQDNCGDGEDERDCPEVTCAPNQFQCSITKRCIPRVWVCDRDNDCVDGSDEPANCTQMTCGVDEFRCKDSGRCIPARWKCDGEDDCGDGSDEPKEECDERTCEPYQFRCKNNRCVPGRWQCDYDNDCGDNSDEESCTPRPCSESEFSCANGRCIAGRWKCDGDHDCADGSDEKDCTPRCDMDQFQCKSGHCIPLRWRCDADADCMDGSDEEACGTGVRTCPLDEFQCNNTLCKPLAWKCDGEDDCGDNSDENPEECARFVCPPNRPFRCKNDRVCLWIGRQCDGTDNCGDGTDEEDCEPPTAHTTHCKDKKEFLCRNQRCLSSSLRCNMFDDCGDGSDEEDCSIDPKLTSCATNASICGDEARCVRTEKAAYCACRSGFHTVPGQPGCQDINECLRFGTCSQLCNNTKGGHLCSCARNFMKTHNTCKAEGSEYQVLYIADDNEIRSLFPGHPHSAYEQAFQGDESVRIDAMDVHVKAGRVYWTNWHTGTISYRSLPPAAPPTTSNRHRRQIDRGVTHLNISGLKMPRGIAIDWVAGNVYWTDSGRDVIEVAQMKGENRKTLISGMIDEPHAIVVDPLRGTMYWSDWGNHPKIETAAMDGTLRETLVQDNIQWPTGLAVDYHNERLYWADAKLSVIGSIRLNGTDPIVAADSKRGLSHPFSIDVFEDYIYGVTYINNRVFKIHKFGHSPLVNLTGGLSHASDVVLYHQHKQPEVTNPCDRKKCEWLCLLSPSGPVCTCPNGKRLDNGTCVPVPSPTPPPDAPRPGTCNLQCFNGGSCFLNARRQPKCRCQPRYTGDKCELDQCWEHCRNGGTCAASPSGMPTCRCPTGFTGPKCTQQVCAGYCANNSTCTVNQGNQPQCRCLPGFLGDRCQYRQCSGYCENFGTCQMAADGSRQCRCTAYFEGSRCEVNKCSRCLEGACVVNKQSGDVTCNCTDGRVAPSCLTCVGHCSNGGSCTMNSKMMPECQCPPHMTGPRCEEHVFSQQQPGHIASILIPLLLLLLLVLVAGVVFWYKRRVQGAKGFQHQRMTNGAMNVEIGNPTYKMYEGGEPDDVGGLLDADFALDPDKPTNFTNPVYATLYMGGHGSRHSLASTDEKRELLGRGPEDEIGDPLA",
  "data": [
    {"substance": "RAP (from UniProt P30533)", "values": [
      {"measurement": "Kd", "value": 9, "unit": "nM"}
    ]}
  ]
}
